These results are taken from US20110223176A1 (AbbVie / Abbott, published 2011).

In assay [1] the target is T1, purified recombinant human BSG2 extracellular domain (human, UniProt P35613 22-325).
T1 construct: also called Human BSG2 ECD
T1 sequence: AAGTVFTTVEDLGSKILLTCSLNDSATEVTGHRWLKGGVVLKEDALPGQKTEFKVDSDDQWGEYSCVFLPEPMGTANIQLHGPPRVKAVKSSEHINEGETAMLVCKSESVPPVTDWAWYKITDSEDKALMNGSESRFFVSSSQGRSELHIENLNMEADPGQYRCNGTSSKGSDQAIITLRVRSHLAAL
The assay is described as follows: SPR (Biacore), mAb captured by anti-mouse Fc, BSG2 ECD injected, 25 C. The method, then: (§1) Binding of BSG2 antibodies to a purified recombinant BSG2 extracellular domain (ECD) was determined by surface plasmon resonance-based measurements with a Biacore® instrument (either a Biacore 2000, Biacore 3000, or Biacore T100; GE Healthcare, Piscataway, N.J., US). The assay format for mAb affinity analysis was Fc-based capture via immobilized anti-Fc IgG. A standard amine coupling protocol was employed to immobilize Fc-specific IgG via primary amines to the carboxy-methyl (CM) dextran surface of CMS sensorchips. For the study of mouse anti-human BSG2 mAbs, anti-mouse Fc was used as the immobilized capture reagent. An automated protocol, available on the Biacore 2000, was used to immobilize 8000-10000RU of capture reagent in all 4 flowcells of the sensorchip. Binding was recorded as a function of time and kinetic rate constants were calculated. In this assay, on-rates as fast as 10⁷M⁻¹ s⁻¹ and off-rates as slow as 10⁻⁵ s⁻¹ can be measured.
(§2) Briefly, the CM-dextran surfaces were activated by freshly prepared 1:1 […] 3-(N,N-dimethylamino)propyl-N-ethylcarbodiimide (EDC). Then the anti-Fc IgG capture reagent (20 μg/ml in 10 mM sodium acetate, pH 4.5) was applied to the surface followed by deactivation of the surface and blocking of the residual reactive sites with 1M ethanolamine (pH 8.5). The running buffer employed was PBS-PB [1×PBS (Sigma P3813), pH 7.4, 0.005% P20 surfactant, 0.1 mg/ml BSA (Sigma-A7906)] and the assay temperature was 25° C. All reagents were diluted into running buffer to the specified concentrations. Each experimental cycle consisted of the following steps: (1) anti-BSG2 mAbs at 0.5 to 1 μg/ml were captured in flowcells 2, 3 or 4 to a level of 100-120RU. All measurements were referenced against flowcell 1 which had no captured anti-BSG2 mAb; (2) human BSG2 ECD was injected through all 4 flowcells, 240 μl at 80 μl/min. After the antigen injection, dissociation was monitored for 600 seconds at 80 μl/min; and (3) the anti-Fc capture surface was regenerated with 10 mM glycine, pH 1.5.
(§3) The BSG2 antibody binding affinities were determined by the BIACORE technology as described in Example 1.2. Table 10 represents the antibody binding kinetics against human and cynomolgus monkey BSG2 extracellular domain (ECD).

In assay [2] the target is T2, cynomolgus monkey BSG2 extracellular domain (cynomolgus monkey).
T2 construct: extracellular domain; also called Cynomolgus BSG2 ECD
The assay is described as above. Here is the method:
as §1, §2, §3

The target in assay [3] is T3, cynomolgus monkey BSG2 on the cell surface (cynomolgus monkey).
T3 construct: whole, on cells; also called BAF3-cyno BSG2; Cyno BSG2
In words: receptor binding assay, Eu-labeled antibody on cells expressing cynomolgus BSG2. Here is the method: Cell lines expressing BSG2 were harvested and washed once in assay buffer (PBS, 0.1% BSA, 0.02% Na Azide, 10 mM EDTA) and resuspended to 5×10⁶ cells per mL. Serial 1:2 dilutions of ⁺³Eu-labeled anti-BSG2 antibody stock in assay buffer were made for final concentrations ranging from 1.6×10⁻⁸-7.7×10⁻¹² M, and a 4 mg/mL solution of unlabeled anti-BSG2 antibody was also prepared. To 96 well round bottom plates, 25 μl of ⁺³Eu-labeled antibody dilutions were added to 25 μl buffer (total counts), or 25 μl of unlabeled antibody were added to 25 μl buffer (background counts). 50 μl of cells at 2.5×10⁵ cells per well were then added to all samples, mixed gently, and incubated on ice for 1 hour. […] Signal was determined by incubating samples with 150 μL/well of enhancement buffer and read using Envision. The specific counts were determined by subtracting the background counts (cells+labeled antibody+excess cold antibody) from the corresponding total counts (cells+labeled antibody) for each antibody concentration. The labeled antibody concentration versus total counts was analyzed using Graphpad Prism 4 to calculate Kd and Bmax values.
BSG2 antibody binding activities against whole cells expressing human or cynomolgus monkey BSG2 were assessed by ECL using MSD technology (described in Example 1.3) and the receptor binding assay (described in Example 1.4) and are shown in Table 11.

The target in assay [4] is T4, human BSG2 (basigin isoform 2) on the cell surface (human, UniProt P35613 140-385).
T4 construct: Presented on stably transfected BAF3 cells or endogenously on human tumor cell lines (HepG2, MiaPaCa-2, DoHH-2); also called hBSG2; CD147
T4 sequence: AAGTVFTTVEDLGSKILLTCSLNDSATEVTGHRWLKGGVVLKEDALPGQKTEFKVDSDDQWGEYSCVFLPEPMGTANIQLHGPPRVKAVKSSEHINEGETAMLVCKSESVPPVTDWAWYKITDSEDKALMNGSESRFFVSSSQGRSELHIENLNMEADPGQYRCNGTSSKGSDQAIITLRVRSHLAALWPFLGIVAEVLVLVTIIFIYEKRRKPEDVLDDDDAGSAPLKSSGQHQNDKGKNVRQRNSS
The assay is described as follows: flow cytometry (FACS) on HepG2 hepatocellular carcinoma cells (cell-surface BSG2); HepG2 hepatocellular carcinoma cells (endogenous BSG2), not BAF3 transfectants. Here is the method: Stable cell lines overexpressing cell-surface BSG2 or human tumor cell lines were harvested from tissue culture flasks, washed three times and resuspended in phosphate buffered saline (PBS) containing 1% bovine serum albumin and 1 mM CaCl₂ (FACS buffer). 5×10⁵ cells were incubated with antibodies at various concentrations in FACS buffer for 60 minutes on ice. Cells were washed twice and the bound murine monoclonal antibody was detected with a goat Fab′2 anti-mouse IgM+IgG+IgA (H+L) R-phycoerythrin-conjugated antibody (Southern Biotechnology Associates, Inc., Birmingham, Ala., Catalog No. 1012-08) diluted 1:500. Following incubation on ice (4° C., 60 minutes), cells were washed three times and resuspended in FACS buffer. Fluorescence was measured using a Becton Dickinson FACSCalibur-HTS (Becton Dickinson, San Jose, Calif., US). Data were analyzed using Graphpad Prism software and EC₅₀ values were reported as the concentration of antibody to achieve 50% of maximal BSG2 antibodies binding to BSG2 expressing cells.
In general terms: A flow cytometer gives signals particle by particle.

B1: mouse anti-human BSG2 monoclonal antibody ML64-6A11-3A3 (antibody, mouse IgG2a, V domains shown)
VH: EVKLEESGGGLVQPGGSMKLSCVASGFTFSNFWMDWVRQSPEKGLEWIAGIRLKSYNYATHYAESVKGRFTISRDDSKSSVYLQMNNLRAEDTGIYYCTDWDGAYWGQGTLVTVSA
VL: DIVMTQSHKFMSTSVGDRVSITCKASQDVSTDVAWYQQKPGQSPKLLIYSASYRYTGVPDRFTGSGSGTDFTFTISSVQAEDLAVYYCQQHYSTPFTFGSGTKLEIK
notes: Hybridoma antibody, mouse IgG2a/kappa; also called 6A11-3A3 parental mouse antibody; Ab 3A3
As a reminder, the Kd is the free concentration of one partner at which half of the binding sites on the other are occupied at equilibrium, for simple one-to-one binding. As usually defined, the koff is the rate constant with which the complex falls apart. A word on the kon: it is the rate constant with which the complex forms. One may read the EC50 as the concentration needed to bring the measured effect to its halfway point. Take B1: the values for the Kd in assay [1], in assay [2] and in assay [3] were 1.5 nM, 440 nM and 3.6 nM, respectively. Besides, the koff in assay [1] is 0.00059 s⁻¹; in assay [2], 0.149 s⁻¹. For the same molecule, the values for the kon in assay [1] and in assay [2] were 400000 M⁻¹ s⁻¹ and 338000 M⁻¹ s⁻¹, respectively. The molecule further showed a concentration giving a half-maximal response (EC50) in assay [4] of 0.32 nM.
